From patent publication EP4803150A2 (Lyvgen Biopharma Holdings Limited, dated 2026)
Like-named read-outs stand apart in the source and are kept apart here.

T1: CD19 (human, UniProt P15391 20-556)
T1 construct: whole, on cells
T1 sequence (looked up): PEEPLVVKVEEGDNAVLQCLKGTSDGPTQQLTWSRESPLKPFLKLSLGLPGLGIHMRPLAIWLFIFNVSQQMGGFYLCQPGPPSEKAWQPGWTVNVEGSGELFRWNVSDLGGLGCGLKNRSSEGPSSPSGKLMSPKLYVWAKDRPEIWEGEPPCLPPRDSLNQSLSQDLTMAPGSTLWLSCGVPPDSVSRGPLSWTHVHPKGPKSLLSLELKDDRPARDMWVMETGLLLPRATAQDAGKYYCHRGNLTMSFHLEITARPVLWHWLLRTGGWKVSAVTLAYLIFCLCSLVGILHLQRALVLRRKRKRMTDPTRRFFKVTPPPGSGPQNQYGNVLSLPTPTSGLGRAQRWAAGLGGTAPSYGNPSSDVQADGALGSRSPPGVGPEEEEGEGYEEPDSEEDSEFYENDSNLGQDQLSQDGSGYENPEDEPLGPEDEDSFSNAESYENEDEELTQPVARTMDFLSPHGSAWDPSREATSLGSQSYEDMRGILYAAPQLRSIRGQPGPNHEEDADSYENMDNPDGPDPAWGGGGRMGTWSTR


Key:
[1] = target: T1, CD19; assay: CHO cells overexpressing CD19, graded
[2] = target: T2, CD137 (human, UniProt Q07011 24-186); assay: FCM or ELISA, graded
T2 construct: Whole on GS-H2-huCD137 reporter cells in the reporter assays; also called 4-1BB

[3] = target: T2, CD137; assay: FCM or ELISA, graded; remark: listed apart in the source

Row | Binder | binding result [1] | binding result [2] | binding result [3]
1 | Ly2800 (multi-specific antibody, CD19/CD20/CD3/CD137) chain 1: QVQLQQPGAELVKPGASVKMSCKASGYTFTSYNMHWVKQTPGRGLEWIGAIYPGNGDTSYNQKFKGKATLTADKSSSTAYMQLSSLTSEDSAVYYCARSTYYGGDWYFNVWGAGTTVTVSAASVAAPSVFIFPPSDEQLKSGTASVVCLLNNFYPREAKVQWKVDNALQSGNSQESVTEQDSKDSTYSLSSTLTLSKADYEKHKVYACEVTHQGLSSPVTKSFNRGECGGGGSGGGGSGGGGSGGGGSEVQLVESGGGLVQPGGSLRLSCAASGFTFSTYAMNWVRQAPGKGLEWVGRIRSKYNNYATYYADSVKGRFTISRDDSKNSLYLQMNSLKTEDTAVYYCVRHGNFGNSYVSWFAYWGQGTLVTVSSGGGGSDKTHTCPPCPAPELLGPSVFLFPPKPKDTLMISRTPEVTCVVVDVSHEDPEVKFNWYVDGVEVHNAKTKPREEQYNSTYRVVSVLTVLHQDWLNGKEYKCKVSNKALGAPIEKTISKAKGQPREPQVYTLPPSREEMTKNQVSLWCLVKGFYPSDIAVEWESNGQPENNYKTTPPVLDSDGSFFLYSKLTVDKSRWQQGNVFSCSVMHEALHNHYTQKSLSLSPGKGGGGSGGGGSGGGGSGGGGSQVQLVQSGAEVKKPGASVKVSCKASGYTFAGFEMHWVRQAPGQGLEWMGAIDPKTGGTDYNQKFKDRVTMTRDTSISTAYMELSRLRSDDTAVYYCARDLGYFDVWGQGTLVTVSS chain 2: QVQLQQSGAELVRPGSSVKISCKASGYAFSSYWMNWVKQRPGQGLEWIGQIWPGDGDTNYNGKFKGKATLTADESSSTAYMQLSSLASEDSAVYFCARRETTTVGRYYYAMDYWGQGTTVTVSSASTKGPSVFPLAPSSKSTSGGTAALGCLVKDYFPEPVTVSWNSGALTSGVHTFPAVLQSSGLYSLSSVVTVPSSSLGTQTYICNVNHKPSNTKVDKKVEPKSCGGGGSGGGGSGGGGSGGGGSQAVVTQEPSLTVSPGGTVTLTCRSSTGAVTTSNYANWVQQKPGQAPRGLIGGTNKRAPWTPARFSGSLLGGKAALTITGAQAEDEADYYCALWYSNLWVFGGGTKLTVLGGGGSDKTHTCPPCPAPELLGPSVFLFPPKPKDTLMISRTPEVTCVVVDVSHEDPEVKFNWYVDGVEVHNAKTKPREEQYNSTYRVVSVLTVLHQDWLNGKEYKCKVSNKALGAPIEKTISKAKGQPREPQVYTLPPSREEMTKNQVSLSCAVKGFYPSDIAVEWESNGQPENNYKTTPPVLDSDGSFFLVSKLTVDKSRWQQGNVFSCSVMHEALHNHYTQKSLSLSPGKGGGGSGGGGSGGGGSGGGGSDIQMTQSPSSLSASVGDRVTITCRASQDIRSNLNWYQQKPGGAVKLLIYYTSRLHSGVPSRFSGSGSGTDYTLTISSLQPEDFATYFCQQSEKLPRTFGGGTKVEIR chain 3: QIVLSQSPAILSASPGEKVTMTCRASSSVSYIHWFQQKPGSSPKPWIYATSNLASGVPVRFSGSGSGTSYSLTISRVEAEDAATYYCQQWTSNPPTFGGGTKLEIKSSASTKGPSVFPLAPSSKSTSGGTAALGCLVKDYFPEPVTVSWNSGALTSGVHTFPAVLQSSGLYSLSSVVTVPSSSLGTQTYICNVNHKPSNTKVDKKVEPKSC chain 4: not shown | binds | binds | –
2 | Ly2823 (multi-specific antibody, B7H3/CD3/CD137) chain 1: EVQLVESGGGLVKPGGSLKLSCEASRFTFSSYAMSWVRQTPEKRLEWVAAISGGGRYTYYPDSMKGRFTISRDNAKNFLYLQMSSLRSEDTAMYYCARHYDGYLDYWGQGTTLTVSSASTKGPSVFPLAPSSKSTSGGTAALGCLVKDYFPEPVTVSWNSGALTSGVHTFPAVLQSSGLYSLSSVVTVPSSSLGTQTYICNVNHKPSNTKVDKKVEPKSCGGGGSGGGGSGGGGSGGGGSEVQLVESGGGLVQPGGSLRLSCAASGFTFSTYAMNWVRQAPGKGLEWVGRIRSKYNNYATYYADSVKGRFTISRDDSKNSLYLQMNSLKTEDTAVYYCVRHGNFGNSYVSWFAYWGQGTLVTVSSGGGGSDKTHTCPPCPAPELLGPSVFLFPPKPKDTLMISRTPEVTCVVVDVSHEDPEVKFNWYVDGVEVHNAKTKPREEQYNSTYRVVSVLTVLHQDWLNGKEYKCKVSNKALGAPIEKTISKAKGQPREPQVYTLPPSREEMTKNQVSLWCLVKGFYPSDIAVEWESNGQPENNYKTTPPVLDSDGSFFLYSKLTVDKSRWQQGNVFSCSVMHEALHNHYTQKSLSLSPGKGGGGSGGGGSGGGGSGGGGSQVQLVQSGAEVKKPGASVKVSCKASGYTFAGFEMHWVRQAPGQGLEWMGAIDPKTGGTDYNQKFKDRVTMTRDTSISTAYMELSRLRSDDTAVYYCARDLGYFDVWGQGTLVTVSS chain 2: EVQLVESGGGLVKPGGSLKLSCEASRFTFSSYAMSWVRQTPEKRLEWVAAISGGGRYTYYPDSMKGRFTISRDNAKNFLYLQMSSLRSEDTAMYYCARHYDGYLDYWGQGTTLTVSSASTKGPSVFPLAPSSKSTSGGTAALGCLVKDYFPEPVTVSWNSGALTSGVHTFPAVLQSSGLYSLSSVVTVPSSSLGTQTYICNVNHKPSNTKVDKKVEPKSCGGGGSGGGGSGGGGSGGGGSQAVVTQEPSLTVSPGGTVTLTCRSSTGAVTTSNYANWVQQKPGQAPRGLIGGTNKRAPWTPARFSGSLLGGKAALTITGAQAEDEADYYCALWYSNLWVFGGGTKLTVLGGGGSDKTHTCPPCPAPELLGPSVFLFPPKPKDTLMISRTPEVTCVVVDVSHEDPEVKFNWYVDGVEVHNAKTKPREEQYNSTYRVVSVLTVLHQDWLNGKEYKCKVSNKALGAPIEKTISKAKGQPREPQVYTLPPSREEMTKNQVSLSCAVKGFYPSDIAVEWESNGQPENNYKTTPPVLDSDGSFFLVSKLTVDKSRWQQGNVFSCSVMHEALHNHYTQKSLSLSPGKGGGGSGGGGSGGGGSGGGGSDIQMTQSPSSLSASVGDRVTITCRASQDIRSNLNWYQQKPGGAVKLLIYYTSRLHSGVPSRFSGSGSGTDYTLTISSLQPEDFATYFCQQSEKLPRTFGGGTKVEIR chain 3: DIVMTQSHKFMSTSIGARVSITCKASQDVRTAVAWYQQKPGQSPKLLIYSASYRYTGVPDRFTGSGSGTDFTFTISSVQAEDLAVYYCQQHYGTPPWTFGGGTKLEIKRTVAAPSVFIFPPSDEQLKSGTASVVCLLNNFYPREAKVQWKVDNALQSGNSQESVTEQDSKDSTYSLSSTLTLSKADYEKHKVYACEVTHQGLSSPVTKSFNRGEC | – | – | binds
3 | Ly2940 (bispecific antibody, human IgG1, kappa, B7H3/CD137; anti-CD137 Fv on C-terminal) chain 1: QVQLVQSGAEVKKPGASVKVSCKASGYTFTSYVMHWVRQKPGQGLEWIGYINPYNEGTESTDKFKGRATMTSDKSTSTVYMELSSLRSEDTAVYYCASIYYGYEGTYFGVWGQGTLVTVSSASTKGPSVFPLAPSSKSTSGGTAALGCLVKDYFPEPVTVSWNSGALTSGVHTFPAVLQSSGLYSLSSVVTVPSSSLGTQTYICNVNHKPSNTKVDKKVEPKSCDKTHTCPPCPAPELLGPSVFLFPPKPKDTLMISRTPEVTCVVVDVSHEDPEVKFNWYVDGVEVHNAKTKPREEQYNSTYRVVSVLTVLHQDWLNGKEYKCKVSNKALGAPIEKTISKAKGQPREPQVYTLPPSREEMTKNQVSLWCLVKGFYPSDIAVEWESNGQPENNYKTTPPVLDSDGSFFLYSKLTVDKSRWQQGNVFSCSVMHEALHNHYTQKSLSLSPGKGGGGSGGGGSGGGGSGGGGSQVQLVQSGAEVKKPGASVKVSCKASGYTFAGFEMHWVRQAPGQGLEWMGAIDPKTGGTDYNQKFKDRVTMTRDTSISTAYMELSRLRSDDTAVYYCARDLGYFDVWGQGTLVTVSS chain 2: QVQLVQSGAEVKKPGASVKVSCKASGYTFTSYVMHWVRQKPGQGLEWIGYINPYNEGTESTDKFKGRATMTSDKSTSTVYMELSSLRSEDTAVYYCASIYYGYEGTYFGVWGQGTLVTVSSASTKGPSVFPLAPSSKSTSGGTAALGCLVKDYFPEPVTVSWNSGALTSGVHTFPAVLQSSGLYSLSSVVTVPSSSLGTQTYICNVNHKPSNTKVDKKVEPKSCDKTHTCPPCPAPELLGPSVFLFPPKPKDTLMISRTPEVTCVVVDVSHEDPEVKFNWYVDGVEVHNAKTKPREEQYNSTYRVVSVLTVLHQDWLNGKEYKCKVSNKALGAPIEKTISKAKGQPREPQVYTLPPSREEMTKNQVSLSCAVKGFYPSDIAVEWESNGQPENNYKTTPPVLDSDGSFFLVSKLTVDKSRWQQGNVFSCSVMHEALHNRFTQKSLSLSPGKGGGGSGGGGSGGGGSGGGGSDIQMTQSPSSLSASVGDRVTITCRASQDIRSNLNWYQQKPGGAVKLLIYYTSRLHSGVPSRFSGSGSGTDYTLTISSLQPEDFATYFCQQSEKLPRTFGGGTKVEIR chain 3: EIVLTQSPATLSLSPGERATLSCRASSSVSYMHWYQQKPGQAPRPWIYATSNLASGIPARFSGSRSGTDYTLTISSLEPEDFAVYYCQQWSSNTLTFGGGTKVEIKRTVAAPSVFIFPPSDEQLKSGTASVVCLLNNFYPREAKVQWKVDNALQSGNSQESVTEQDSKDSTYSLSSTLTLSKADYEKHKVYACEVTHQGLSSPVTKSFNRGEC | – | – | binds
